The results in this text go back to article PMC4340503 (Nature, 2008).

Where no end group is shown, it is not given here. [ ]: non-standard residue; d: D form. pS = N[C@@H](COP(=O)(O)O)C(=O)O

The target of this test is σ2 subunit of the AP2 core (σ2-adaptin 1-143) (mouse, UniProt P62743 1-142). Description: crystal structure.
Chain of σ2 subunit of the AP2 core (σ2-adaptin 1-143) (P62743 whole entry, looked up, tested part not stated): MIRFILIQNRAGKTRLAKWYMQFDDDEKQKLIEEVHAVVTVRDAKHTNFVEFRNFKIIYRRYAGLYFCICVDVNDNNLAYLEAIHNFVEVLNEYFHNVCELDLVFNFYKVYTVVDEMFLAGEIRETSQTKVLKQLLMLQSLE

As for RM[pS]QIKRLLSE [CD4 dileucine peptide RM(phosphoS)QIKRLLSE (Q peptide), as co-crystallised], the binding result is “binds”.
